The results in this text go back to IntAct's records for PubMed 9278513.

B1: Response regulator Rcp1 (Synechocystis sp. (strain PCC 6803 / Kazusa)), Q55169 (parent)
chain: MSDESNPPKVILLVEDSKADSRLVQEVLKTSTIDHELIILRDGLAAMAFLQQQGEYENSPRPNLILLDLNLPKKDGREVLAEIKQNPDLKRIPVVVLTTSHNEDDVIASYELHVNCYLTKSRNLKDLFKMVQGIESFWLETVTLPAA
B2: Phytochrome-like protein Cph1 (Synechocystis sp. (strain PCC 6803 / Kazusa)), Q55168 (parent)
chain: MATTVQLSDQSLRQLETLAIHTAHLIQPHGLVVVLQEPDLTISQISANCTGILGRSPEDLLGRTLGEVFDSFQIDPIQSRLTAGQISSLNPSKLWARVMGDDFVIFDGVFHRNSDGLLVCELEPAYTSDNLPFLGFYHMANAALNRLRQQANLRDFYDVIVEEVRRMTGFDRVMLYRFDENNHGDVIAEDKRDDMEPYLGLHYPESDIPQPARRLFIHNPIRVIPDVYGVAVPLTPAVNPSTNRAVDLTESILRSAYHCHLTYLKNMGVGASLTISLIKDGHLWGLIACHHQTPKVIPFELRKACEFFGRVVFSNISAQEDTETFDYRVQLAEHEAVLLDKMTTAADFVEGLTNHPDRLLGLTGSQGAAICFGEKLILVGETPDEKAVQYLLQWLENREVQDVFFTSSLSQIYPDAVNFKSVASGLLAIPIARHNFLLWFRPEVLQTVNWGGDPNHAYEATQEDGKIELHPRQSFDLWKEIVRLQSLPWQSVEIQSALALKKAIVNLILRQAEELAQLARNLERSNADLKKFAYIASHDLQEPLNQVSNYVQLLEMRYSEALDEDAKDFIDFAVTGVSLMQTLIDDILTYAKVDTQYAQLTFTDVQEVVDKALANLKQRIEESGAEIEVGSMPAVMADQIQLMQVFQNLIANGIKFAGDKSPKIKIWGDRQEDAWVFAVQDNGIGIDPQFFERIFVIFQRLHTRDEYKGTGMGLAICKKIIEGHQGQIWLESNPGEGSTFYFSIPIGN
partner: B1 chain

The variants in the first test derive from B1. To be noted: with phy1_syny3 cph1, Q55168.
For D68A, the “effect of a mutation on the interaction” value is given as “disrupting interaction”.

Variants of B2 are the subject of the next test. Conditions: with rcp1_syny3 rcp1, Q55169.
H538K: the “effect of a mutation on the interaction” value was “disrupting interaction”.
